Results reported in patent US20170247465A1, “COMBINATION THERAPY FOR TREATMENT OF CANCER” (OncoMed Pharmaceuticals, Inc., priority 2014, published 2017).
Entries after “also recorded” stand apart in the source; their conditions may differ.

Key:
Type in all cases: in vivo, NOD/SCID mice
[1] = test system: UM-PE13 breast tumor cells; assay: UM-PE13 breast tumor xenograft, staggered dosing of OMP-18R5 and paclitaxel (Example 2)
Protocol: FIG. 2. Inhibition of breast tumor growth in vivo by a Wnt pathway inhibitor in combination with a taxane using a staggered dosing schedule. UM-PE13 breast tumor cells were injected subcutaneously into NOD/SCID mice. […] OMP-18R5 was administered at 25 mg/kg and paclitaxel at 20 mg/kg. Agents were administered every three weeks and administered intraperitoneally. Data is shown as tumor volume (mm^3) over days post treatment.
Single cell suspensions of xenograft UM-PE13 breast tumor cells (20,000 cells) were injected subcutaneously into 6-8 week old NOD/SCID mice. UM-PE13 is a triple negative breast cancer. Tumors were allowed to grow 34 days until they reached an average volume of 80 mm^3. The mice were randomized (n=8 per group) and treated with paclitaxel, a combination of OMP-18R5 and paclitaxel administered on the same day, a combination of OMP-18R5 and paclitaxel where the paclitaxel was administered 3 days prior to OMP-18R5, a combination of OMP-18R5 and paclitaxel where OMP-18R5 was administered 3 days prior to the paclitaxel, or a control antibody. Mice were treated once every three weeks with OMP-18R5 at a dose of 25 mg/kg and paclitaxel at a dose of 20 mg/kg. OMP-18R5 and paclitaxel were administered intraperitoneally. Tumor growth was monitored and tumor volumes were measured with electronic calipers at the indicated time points. Data are expressed as mean±S.E.M.

[2] = test system: OMP-LU77 lung tumor cells; assay: OMP-LU77 lung tumor xenograft, staggered dosing of vantictumab and paclitaxel (Example 6); conditions: vantictumab 25 mg/kg administered two days prior to paclitaxel 15 mg/kg, every other week; versus same day, paclitaxel alone; FIG. 4
Protocol: FIG. 4. Inhibition of lung tumor growth in vivo by a Wnt pathway inhibitor in combination with a taxane using a staggered dosing schedule. OMP-LU77 lung tumor cells were injected subcutaneously into NOD/SCID mice. […] Vantictumab was administered at 25 mg/kg and paclitaxel at 15 mg/kg. Agents were administered every other week and administered intraperitoneally. Data is shown as tumor volume (mm^3) over days post treatment.
OMP-LU77 is a patient-derived non-small cell lung (NSCLC) tumor. Single cell suspensions of xenograft OMP-LU77 lung tumor cells (50,000 cells) were injected subcutaneously into NOD/SCID mice. Tumors were allowed to grow 37 days until they had reached an average volume of approximately 200 mm^3. Tumor-bearing mice were randomized into 4 groups (n=8-9 per group). […] Antibodies were dosed at 25 mg/kg, administered every other week. Paclitaxel was dosed at 15 mg/kg, also every other week. Tumor growth was monitored and tumor volumes were measured on the indicated days post-treatment. Data are expressed as mean±SEM.

[3] = test system: OMP-OV40 ovarian tumor cells; assay: OMP-OV40 ovarian tumor xenograft, staggered dosing of Wnt inhibitors and paclitaxel (Example 11); conditions: Wnt pathway inhibitor 25 mg/kg administered 2 days prior to paclitaxel 20 mg/kg, every two weeks i.p.; versus single agents; FIG. 9
Protocol: FIG. 9A-9B. Inhibition of ovarian tumor growth in vivo by a Wnt pathway inhibitor in combination with a taxane using a staggered dosing schedule. FIG. 9A. OMP-OV40 ovarian tumor cells were injected subcutaneously into NOD/SCID mice. Mice were treated with control antibody (-•-), OMP-18R5 (-▴-), paclitaxel (-▪-), or a combination of OMP-18R5 and paclitaxel, where OMP-18R5 was administered 2 days prior to administration of paclitaxel (-⋄-). […]. OMP-OV40 ovarian tumor cells were injected subcutaneously into NOD/SCID mice. Mice were treated with control antibody (-•-), OMP-54F28 (-▴-), paclitaxel (-▪-), or a combination of OMP-54F28 and paclitaxel, where OMP-54F28 was administered 2 days prior to administration of paclitaxel (-⋄-). OMP-18R5, OMP-54F28 and control antibody were administered at 25 mg/kg and paclitaxel was administered at 20 mg/kg. Agents were administered once every two weeks and administered intraperitoneally. Data is shown as tumor volume (mm^3) over days post treatment.
Single cell suspensions of xenograft OMP-OV40 ovarian tumor cells were injected subcutaneously into 6-8 week old NOD/SCID mice. Tumors were allowed to grow until they reached an average volume of approximately 128 mm^3. […] Tumor growth was monitored and tumor volumes were measured with electronic calipers at the indicated time points. Data are expressed as mean±S.E.M.

B1: OMP-18R5: anti-FZD antibody, IgG2, also known as vantictumab; heavy chain SEQ ID NO:3, light chain SEQ ID NO:4 (antibody)
heavy: EVQLVESGGGLVQPGGSLRLSCAASGFTFSHYTLSWVRQAPGKGLEWVSVISGDGSYTYYADSVKGRFTISSDNSKNTLYLQMNSLRAEDTAVYYCARNFIKYVFANWGQGTLVTVSSASTKGPSVFPLAPCSRSTSESTAALGCLVKDYFPEPVTVSWNSGALTSGVHTFPAVLQSSGLYSLSSVVTVPSSNFGTQTYTCNVDHKPSNTKVDKTVERKCCVECPPCPAPPVAGPSVFLFPPKPKDTLMISRTPEVTCVVVDVSHEDPEVQFNWYVDGVEVHNAKTKPREEQFNSTFRVVSVLTVVHQDWLNGKEYKCKVSNKGLPAPIEKTISKTKGQPREPQVYTLPPSREEMTKNQVSLTCLVKGFYPSDIAVEWESNGQPENNYKTTPPMLDSDGSFFLYSKLTVDKSRWQQGNVFSCSVMHEALHNHYTQKSLSLSPGK
light: DIELTQPPSVSVAPGQTARISCSGDNIGSFYVHWYQQKPGQAPVLVIYDKSNRPSGIPERFSGSNSGNTATLTISGTQAEDEADYYCQSYANTLSLVFGGGTKLTVLGQPKAAPSVTLFPPSSEELQANKATLVCLISDFYPGAVTVAWKADSSPVKAGVETTTPSKQSNNKYAASSYLSLTPEQWKSHRSYSCQVTHEGSTVEKTVAPTECS
[1]; OMP-18R5 25 mg/kg administered 3 days prior to paclitaxel 20 mg/kg, every three weeks i.p., versus same day, paclitaxel first, paclitaxel alone, FIG. 2
  inhibition of tumor growth (tumor volume): significantly better at inhibiting tumor growth of the UM-PE13 breast tumor cells than any of the other dosing regimens
[1]; Wnt pathway inhibitor (OMP-18R5) administered before the taxane (paclitaxel)
  tumor regression in individual mice: tumors in several of the individual mice regressed to undetectable levels
[2]
  inhibition of tumor growth (tumor volume): significantly better at inhibiting tumor growth of the OMP-LU77 lung tumor cells than any of the other dosing regimens
[3]
  inhibition of tumor growth (tumor volume): inhibited tumor growth of the OMP-OV40 ovarian tumor cells to a greater extent than either the Wnt pathway inhibitors or paclitaxel alone; also recorded: inhibited tumor growth
